The numbers were not newly measured in publication PMC4434180, which cites them from elsewhere.

As usually defined, the Kd is the free concentration of one partner at which half of the binding sites on the other are occupied at equilibrium, for simple one-to-one binding.

The data set deals with PriL (p58) NTD (Homo sapiens) (UniProt P49643).
Sequence of UniProt P49643 (P49643 1-253): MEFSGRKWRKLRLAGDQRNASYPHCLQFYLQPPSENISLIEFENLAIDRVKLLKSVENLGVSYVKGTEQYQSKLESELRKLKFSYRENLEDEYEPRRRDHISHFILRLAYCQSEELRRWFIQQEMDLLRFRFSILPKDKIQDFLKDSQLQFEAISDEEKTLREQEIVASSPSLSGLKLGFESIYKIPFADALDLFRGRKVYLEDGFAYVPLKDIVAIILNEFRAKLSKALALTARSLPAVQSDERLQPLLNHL

For the substance PriS (p49) (from UniProt P49642), the dissociation constant (Kd) is 460 pM.
